Experimental data from patent US20230235032A1 (published 2023).

Target: T1, human α-CGRP (1-37, WT) (human, not fully specified; C-terminal amide; N-terminally biotinylated when captured on the chip; 125I-labelled in the radioligand assay)
T1 construct: also called full length human α-CGRP
T1 peptide: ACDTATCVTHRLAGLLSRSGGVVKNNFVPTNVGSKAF
Assay: Biacore competition: 50 nM G1 Fab + 10 uM peptide, over human α-CGRP on SA chip
Protocol: All Biacore assays were conducted in HBS-EP running buffer (10 mM HEPES pH 7.4, 150 mM NaCl, 3 mM EDTA, 0.005% v/v polysorbate P20). CGRP surfaces were prepared by diluting the N-biotinylated CGRP to a concentration of less than 0.001 mg/mL into HBS-EP buffer and injecting it across the SA sensor chip using variable contact times. […] Samples were typically injected for 1 minute at 100 μL/min and dissociation times of at least 10 minutes were allowed. […] An entire titration series (typically generated in duplicate) was fit globally to a 1:1 Langmuir binding model using the BIAevaluation program. This returned a unique pair of association and dissociation kinetic rate constants (respectively, kₒₙ and koff) for each binding interaction, whose ratio gave the equilibrium dissociation constant (KD=koff/kₒₙ).

- percentage of binding blocked by competing peptide: 100%
B1: anti-CGRP antibody G1, Fab fragment (Fab, V domains shown)
VH: EVQLVESGGGLVQPGGSLRLSCAASGFTFSNYWISWVRQAPGKGLEWVAEIRSESDASATHYAEAVKGRFTISRDNAKNSLYLQMNSLRAEDTAVYYCLAYFDYGLAIQNYWGQGTLVTVSS
VL: EIVLTQSPATLSLSPGERATLSCKASKRVTTYVSWYQQKPGQAPRLLIYGASNRYLGIPARFSGSGSGTDFTLTISSLEPEDFAVYYCSQSYNYPYTFGQGTKLEIK
notes: Fab expressed in E. coli; the vector adds the CH1 constant domain of human IgG2 (Ig gamma-2 chain C region, P01859) and the human kappa light chain constant domain (CAA09181); purified on Ni-NTA, tag not described
